Consider 22 molecules from patent publication US20180155451A1 (published 2018).

One test addresses T1, FcγRIa (human, UniProt P12314 16-292).
T1 construct: extracellular domain; also called FcgRI; 1a
The test is described as follows: SPR, captured antibody; relative to GpH7-A5/GpH7-B3/GpL16-k0. For orientation: Surface plasmon resonance follows binding to a sensor surface in real time, without labels.

The target in a further test is T2, FcγRIIb (human, UniProt P31994 43-217).
T2 construct: extracellular domain; also called FcgRIIb; 2b
T2 sequence (looked up): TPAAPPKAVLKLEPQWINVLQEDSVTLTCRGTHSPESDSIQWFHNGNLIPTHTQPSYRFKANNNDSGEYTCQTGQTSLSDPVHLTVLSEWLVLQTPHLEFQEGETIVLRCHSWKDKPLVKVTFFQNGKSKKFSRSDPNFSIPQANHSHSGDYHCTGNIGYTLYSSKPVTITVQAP
Described as above.

T1 sequence (P12314 16-292): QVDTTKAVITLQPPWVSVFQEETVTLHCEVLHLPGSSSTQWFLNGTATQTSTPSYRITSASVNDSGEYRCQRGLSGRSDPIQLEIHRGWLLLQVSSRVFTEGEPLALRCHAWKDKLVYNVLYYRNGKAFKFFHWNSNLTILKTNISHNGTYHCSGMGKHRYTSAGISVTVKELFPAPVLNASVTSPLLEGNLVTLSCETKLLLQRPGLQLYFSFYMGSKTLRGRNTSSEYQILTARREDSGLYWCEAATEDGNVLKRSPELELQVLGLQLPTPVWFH

B1: GpH7-A5/GpH7-B3 variant (D265_10E)/GpL16-k0 (antibody, human IgG1, kappa)
heavy 1: not shown
heavy 2: not shown
light: DIVMTQSPLSLPVTPGEPASISCQASESLVHSNRNTYLHWYLQKPGQSPQLLIYKVSNRFSGVPDRFSGSGSGTDFTLKISRVEAEDVGVYYCSQNTHVPPTFGQGTKVEIERTVAAPSVFIFPPSDEQLKSGTASVVCLLNNFYPREAKVQWKVDNALQSGNSQESVTEQDSKDSTYSLSSTLTLSKADYEKHKVYACEVTHQGLSSPVTKSFNRGEC
notes: IgG1 heterodimer, mutation in the GpH7-B3 chain only; also called He Ab
As for B1, the He/Con_1a with FcγRIa was 101 relative, HeCon Ab = 100. The He/Con_2b with FcγRIIb was 38.2 relative, HeCon Ab = 100.

B2: GpH7-A5/GpH7-B3 variant (H268_07I)/GpL16-k0 (antibody, human IgG1, kappa)
heavy 1: not shown
heavy 2: not shown
light: B1 light
notes: as for B1
With B2, the He/Con_1a with FcγRIa was 108 relative, HeCon Ab = 100. Also, the He/Con_2b with FcγRIIb is 88.9 relative, HeCon Ab = 100.

B3: GpH7-A5/GpH7-B3 variant (L234_03V)/GpL16-k0 (antibody, human IgG1, kappa)
heavy 1: not shown
heavy 2: not shown
light: B1 light
notes: as for B1
As for B3, in the test with FcγRIa, the He/Con_1a was 104 relative, HeCon Ab = 100. Moreover, the He/Con_2b in the test with FcγRIIb was 73.1 relative, HeCon Ab = 100.

B4: GpH7-A5/GpH7-B3 variant (G236_19Q)/GpL16-k0 (antibody, human IgG1, kappa)
heavy 1: not shown
heavy 2: not shown
light: B1 light
notes: as for B1
In the case of B4, in the test with FcγRIa, the He/Con_1a was 92.1 relative, HeCon Ab = 100. In the test with FcγRIIb, the He/Con_2b was 46.6 relative, HeCon Ab = 100.

B5: GpH7-A5/GpH7-B3 variant (H268_08L)/GpL16-k0 (antibody, human IgG1, kappa)
heavy 1: not shown
heavy 2: not shown
light: B1 light
notes: as for B1
For the molecule B5, the He/Con_1a with FcγRIa is 107 relative, HeCon Ab = 100. In addition, in the test with FcγRIIb, the He/Con_2b is 67.8 relative, HeCon Ab = 100.

B6: GpH7-A5/GpH7-B3 variant (E269_18N)/GpL16-k0 (antibody, human IgG1, kappa)
heavy 1: not shown
heavy 2: not shown
light: B1 light
notes: as for B1
For B6, the He/Con_1a with FcγRIa is 102 relative, HeCon Ab = 100. Besides, the He/Con_2b with FcγRIIb is 44.8 relative, HeCon Ab = 100.

B7: GpH7-A5/GpH7-B3 variant (G236_15Y)/GpL16-k0 (antibody, human IgG1, kappa)
heavy 1: not shown
heavy 2: not shown
light: B1 light
notes: as for B1
With B7, the He/Con_1a with FcγRIa is 92.5 relative, HeCon Ab = 100. Moreover, the He/Con_2b in the test with FcγRIIb was 39.5 relative, HeCon Ab = 100.

B8: GpH7-A5/GpH7-B3 variant (E269_03V)/GpL16-k0 (antibody, human IgG1, kappa)
heavy 1: not shown
heavy 2: not shown
light: B1 light
notes: as for B1
As for B8, in the test with FcγRIa, the He/Con_1a was 103 relative, HeCon Ab = 100. In addition, the He/Con_2b with FcγRIIb is 45.1 relative, HeCon Ab = 100.

B9: GpH7-A5/GpH7-B3 variant (G236_06M)/GpL16-k0 (antibody, human IgG1, kappa)
heavy 1: not shown
heavy 2: not shown
light: B1 light
notes: as for B1
B9: the He/Con_1a with FcγRIa is 96.7 relative, HeCon Ab = 100. The He/Con_2b with FcγRIIb was 45.5 relative, HeCon Ab = 100.

B10: GpH7-A5/GpH7-B3 variant (L234_02A)/GpL16-k0 (antibody, human IgG1, kappa)
heavy 1: not shown
heavy 2: not shown
light: B1 light
notes: as for B1
Turning to B10, in the test with FcγRIa, the He/Con_1a was 97.5 relative, HeCon Ab = 100. Besides, the He/Con_2b in the test with FcγRIIb is 64.9 relative, HeCon Ab = 100.

B11: GpH7-A5/GpH7-B3 variant (L234_05P)/GpL16-k0 (antibody, human IgG1, kappa)
heavy 1: not shown
heavy 2: not shown
light: B1 light
notes: as for B1
For the molecule B11, the He/Con_1a with FcγRIa was 99.9 relative, HeCon Ab = 100. In addition, the He/Con_2b with FcγRIIb was 72.9 relative, HeCon Ab = 100.

B12: GpH7-A5/GpH7-B3 variant (G236_14T)/GpL16-k0 (antibody, human IgG1, kappa)
heavy 1: not shown
heavy 2: not shown
light: B1 light
notes: as for B1
With B12, the He/Con_1a with FcγRIa was 92.2 relative, HeCon Ab = 100. The He/Con_2b with FcγRIIb is 57.8 relative, HeCon Ab = 100.

B13: GpH7-A5/GpH7-B3 variant (G236_16H)/GpL16-k0 (antibody, human IgG1, kappa)
heavy 1: not shown
heavy 2: not shown
light: B1 light
notes: as for B1
With B13, the He/Con_1a in the test with FcγRIa is 83.5 relative, HeCon Ab = 100. The He/Con_2b with FcγRIIb was 27.9 relative, HeCon Ab = 100.

B14: GpH7-A5/GpH7-B3 variant (L234_04F)/GpL16-k0 (antibody, human IgG1, kappa)
heavy 1: not shown
heavy 2: not shown
light: B1 light
notes: as for B1
Consider B14, for which the He/Con_1a with FcγRIa was 101 relative, HeCon Ab = 100. Further, in the test with FcγRIIb, the He/Con_2b was 99.8 relative, HeCon Ab = 100.

B15: GpH7-A5/GpH7-B3 variant (E269_20W)/GpL16-k0 (antibody, human IgG1, kappa)
heavy 1: not shown
heavy 2: not shown
light: B1 light
notes: as for B1
As for B15, the He/Con_1a with FcγRIa was 105 relative, HeCon Ab = 100. Besides, in the test with FcγRIIb, the He/Con_2b was 42.5 relative, HeCon Ab = 100.

B16: GpH7-A5/GpH7-B3 variant (H268_11K)/GpL16-k0 (antibody, human IgG1, kappa)
heavy 1: not shown
heavy 2: not shown
light: B1 light
notes: as for B1
As to B16, the He/Con_1a in the test with FcγRIa is 106 relative, HeCon Ab = 100. Moreover, the He/Con_2b with FcγRIIb is 83 relative, HeCon Ab = 100.

B17: GpH7-A5/GpH7-B3 variant (E269_14T)/GpL16-k0 (antibody, human IgG1, kappa)
heavy 1: not shown
heavy 2: not shown
light: B1 light
notes: as for B1
B17: the He/Con_1a with FcγRIa was 106 relative, HeCon Ab = 100. In the test with FcγRIIb, the He/Con_2b is 50.6 relative, HeCon Ab = 100.

B18: GpH7-A5/GpH7-B3 variant (G236_12R)/GpL16-k0 (antibody, human IgG1, kappa)
heavy 1: not shown
heavy 2: not shown
light: B1 light
notes: as for B1
For B18, the He/Con_1a in the test with FcγRIa is 63.1 relative, HeCon Ab = 100. Besides, the He/Con_2b with FcγRIIb is 6.8 relative, HeCon Ab = 100.

B19: GpH7-A5/GpH7-B3 variant (H268_14T)/GpL16-k0 (antibody, human IgG1, kappa)
heavy 1: not shown
heavy 2: not shown
light: B1 light
notes: as for B1
For B19, the He/Con_1a in the test with FcγRIa is 112 relative, HeCon Ab = 100. Also, the He/Con_2b with FcγRIIb was 86 relative, HeCon Ab = 100.

B20: GpH7-A5/GpH7-B3 variant (G236_05P)/GpL16-k0 (antibody, human IgG1, kappa)
heavy 1: not shown
heavy 2: not shown
light: B1 light
notes: as for B1
As for B20, the He/Con_1a with FcγRIa is 77 relative, HeCon Ab = 100. In the test with FcγRIIb, the He/Con_2b is 19 relative, HeCon Ab = 100.

B21: GpH7-A5/GpH7-B3 variant (G236_03V)/GpL16-k0 (antibody, human IgG1, kappa)
heavy 1: not shown
heavy 2: not shown
light: B1 light
notes: as for B1
For B21, the He/Con_1a with FcγRIa was 89.9 relative, HeCon Ab = 100. The He/Con_2b in the test with FcγRIIb was 35.3 relative, HeCon Ab = 100.

B22: GpH7-A5/GpH7-B3 variant (E269_15Y)/GpL16-k0 (antibody, human IgG1, kappa)
heavy 1: not shown
heavy 2: not shown
light: B1 light
notes: as for B1
Regarding B22, the He/Con_1a in the test with FcγRIa was 106 relative, HeCon Ab = 100. For the same molecule, the He/Con_2b with FcγRIIb is 44.7 relative, HeCon Ab = 100.
